Reference: PMC8922272 (The EMBO Journal, 2022)

Target: GST-hAKT2 (human, UniProt P31751 1-481)
Assay: pull-down

GST-hAKT2, sequence (P31751 whole entry): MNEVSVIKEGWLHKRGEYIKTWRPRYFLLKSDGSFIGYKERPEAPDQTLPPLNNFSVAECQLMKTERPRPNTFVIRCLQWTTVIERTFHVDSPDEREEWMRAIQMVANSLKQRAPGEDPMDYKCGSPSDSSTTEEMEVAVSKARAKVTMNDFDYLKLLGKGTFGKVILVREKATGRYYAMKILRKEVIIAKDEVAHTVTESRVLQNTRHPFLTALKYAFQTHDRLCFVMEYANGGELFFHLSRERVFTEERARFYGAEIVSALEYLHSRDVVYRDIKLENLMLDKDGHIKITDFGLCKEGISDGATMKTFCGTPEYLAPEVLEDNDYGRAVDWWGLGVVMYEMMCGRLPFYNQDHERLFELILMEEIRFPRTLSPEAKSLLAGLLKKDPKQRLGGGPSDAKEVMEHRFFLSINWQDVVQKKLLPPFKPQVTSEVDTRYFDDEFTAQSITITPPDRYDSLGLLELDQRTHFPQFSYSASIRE

B1: 6*His-hIRF3 (natural protein)
chain: MGTPKPRILPWLVSQLDLGQLEGVAWVNKSRTRFRIPWKHGLRQDAQQEDFGIFQAWAEATGAYVPGRDKPDLPTWKRNFRSALNRKEGLRLAEDRSKDPHDPHKIYEFVNSGVGDFSQPDTSPDTNGGGSTSDTQEDILDELLGNMVLAPLPDPGPPSLAVAPEPCPQPLRSPSLDNPTPFPNLGPSENPLKRLLVPGEEWEFEVTAFYRGRQVFQQTISCPEGLRLVGSEVGDRTLPGWPVTLPDPGMSLTDRGVMSYVRHVLSCLGGGLALWRAGQWLWAQRLGHCHTYWAVSEELLPNSGHGPDGEVPKDKEGGVFDLGPFIVDLITFTEGSGRSPRYALWFCVGESWPQDQPWTKRLVMVKVVPTCLRALVEMARVGGASSLENTVDLHISNSHPLSLTSDQYKAYLQDLVEGMDFQGPGES
Q: Does B1 bind?
A: binds
